Source: doi:10.1101/2021.01.28.428602 (bioRxiv, 2021)
Read-outs that look alike come from different tables or passages of the source.

Legend:
[1] = biological target: T1, α2β3γ2 GABAA receptor on COS7 cells (Rattus norvegicus (gamma-2 rat or mouse …, UniProt P23576;P63079;P18508)); assay: immunostaining of cells or tissue
[2] = biological target: T2, α3β3γ2 GABAA receptor on COS7 cells (Rattus norvegicus (gamma-2 rat or mouse …, UniProt P20236;P63079;P18508)); assay: immunostaining of cells or tissue
[3] = biological target: T3, α4β3γ2 GABAA receptor on COS7 cells (Rattus norvegicus (gamma-2 rat or mouse …, UniProt P28471;P63079;P18508)); assay: immunostaining of cells or tissue
[4] = biological target: T4, α5β3γ2 GABAA receptor on COS7 cells (Rattus norvegicus (gamma-2 rat or mouse …, UniProt P19969;P63079;P18508)); assay: immunostaining of cells or tissue
[5] = biological target: α1β3 GABAA receptor on COS7 cells (Rattus norvegicus (construct of ref. 7), UniProt P62813;P63079); assay: immunostaining of cells or tissue
[6] = biological target: α1β3γ2 GABAA receptor on COS7 cells (Rattus norvegicus (gamma-2 rat or …, UniProt P62813;P63079;P18508)); assay: immunostaining of cells or tissue
[7] = biological target: GABAA receptor β3 subunit alone on COS7 cells (Rattus norvegicus (construct of ref. 7), UniProt P63079); assay: immunostaining of cells or tissue
[8] = biological target: GABAA receptor γ2 subunit alone on COS7 cells (Rattus norvegicus (rat or mouse …, UniProt P18508)); assay: immunostaining of cells or tissue
[9] = biological target: rat α1β3γ2 GABAA receptor on HEK293T cells (Rattus norvegicus, UniProt P62813;P63079;P18508); assay: flow cytometry on cells
[10] = biological target: rat α1β3 GABAA receptor on HEK293T cells (Rattus norvegicus, UniProt P62813;P63079); assay: immunostaining of cells or tissue
[11] = biological target: β3γ2 GABAA receptor subunits on COS7 cells (Rattus norvegicus (gamma-2 rat or …, UniProt P63079;P18508)); assay: immunostaining of cells or tissue
[12] = biological target: T1, α2β3γ2 GABAA receptor on COS7 cells; assay: immunostaining of cells or tissue; remark: listed apart in the source
[13] = biological target: T2, α3β3γ2 GABAA receptor on COS7 cells; assay: immunostaining of cells or tissue; remark: listed apart in the source
[14] = biological target: T3, α4β3γ2 GABAA receptor on COS7 cells; assay: immunostaining of cells or tissue; remark: listed apart in the source
[15] = biological target: T4, α5β3γ2 GABAA receptor on COS7 cells; assay: immunostaining of cells or tissue; remark: listed apart in the source
[16] = biological target: α1β2γ2 GABAA receptor on COS7 cells (Rattus norvegicus (gamma-2 rat or …, UniProt P62813;P63138;P18508)); assay: immunostaining of cells or tissue

T1 sequence (P23576 29-451, chain 1 of 3): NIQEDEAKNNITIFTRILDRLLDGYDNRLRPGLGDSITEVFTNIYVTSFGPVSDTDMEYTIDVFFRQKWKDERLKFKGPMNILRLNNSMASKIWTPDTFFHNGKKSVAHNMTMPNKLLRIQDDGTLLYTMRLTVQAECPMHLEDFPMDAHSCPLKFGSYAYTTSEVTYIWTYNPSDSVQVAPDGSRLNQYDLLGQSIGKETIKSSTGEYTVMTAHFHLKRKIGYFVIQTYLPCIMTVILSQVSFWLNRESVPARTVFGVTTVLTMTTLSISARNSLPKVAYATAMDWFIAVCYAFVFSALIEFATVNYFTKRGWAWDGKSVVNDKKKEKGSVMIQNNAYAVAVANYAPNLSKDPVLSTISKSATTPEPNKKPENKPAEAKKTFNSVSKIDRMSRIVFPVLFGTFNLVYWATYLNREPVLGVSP
T1 sequence (P63079 26-473, chain 2 of 3): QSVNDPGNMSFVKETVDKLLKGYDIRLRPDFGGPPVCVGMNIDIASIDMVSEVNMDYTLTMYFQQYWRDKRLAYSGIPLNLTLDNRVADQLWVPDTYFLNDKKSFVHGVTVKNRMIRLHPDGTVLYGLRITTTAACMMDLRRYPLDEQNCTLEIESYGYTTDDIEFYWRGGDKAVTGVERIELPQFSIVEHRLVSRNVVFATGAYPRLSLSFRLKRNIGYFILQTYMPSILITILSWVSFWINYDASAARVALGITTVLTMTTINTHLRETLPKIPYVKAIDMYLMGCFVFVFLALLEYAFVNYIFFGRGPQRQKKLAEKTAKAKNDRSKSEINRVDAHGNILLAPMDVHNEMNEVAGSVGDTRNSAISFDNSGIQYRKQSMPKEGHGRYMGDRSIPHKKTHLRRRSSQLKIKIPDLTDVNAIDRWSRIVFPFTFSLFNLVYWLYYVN
T1 sequence (P18508 39-466, chain 3 of 3): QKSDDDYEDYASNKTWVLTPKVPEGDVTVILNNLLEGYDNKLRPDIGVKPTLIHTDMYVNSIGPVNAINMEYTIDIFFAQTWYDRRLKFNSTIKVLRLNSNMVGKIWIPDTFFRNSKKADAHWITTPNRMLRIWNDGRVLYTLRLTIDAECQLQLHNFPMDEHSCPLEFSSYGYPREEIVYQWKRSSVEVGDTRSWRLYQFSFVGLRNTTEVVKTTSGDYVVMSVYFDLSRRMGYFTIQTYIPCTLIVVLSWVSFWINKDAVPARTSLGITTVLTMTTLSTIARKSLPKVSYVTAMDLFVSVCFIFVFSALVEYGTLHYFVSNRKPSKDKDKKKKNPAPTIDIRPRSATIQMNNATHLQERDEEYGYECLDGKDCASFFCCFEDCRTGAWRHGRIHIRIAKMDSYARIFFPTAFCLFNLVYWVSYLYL
T4 sequence (P19969 26-464, chain 1 of 3): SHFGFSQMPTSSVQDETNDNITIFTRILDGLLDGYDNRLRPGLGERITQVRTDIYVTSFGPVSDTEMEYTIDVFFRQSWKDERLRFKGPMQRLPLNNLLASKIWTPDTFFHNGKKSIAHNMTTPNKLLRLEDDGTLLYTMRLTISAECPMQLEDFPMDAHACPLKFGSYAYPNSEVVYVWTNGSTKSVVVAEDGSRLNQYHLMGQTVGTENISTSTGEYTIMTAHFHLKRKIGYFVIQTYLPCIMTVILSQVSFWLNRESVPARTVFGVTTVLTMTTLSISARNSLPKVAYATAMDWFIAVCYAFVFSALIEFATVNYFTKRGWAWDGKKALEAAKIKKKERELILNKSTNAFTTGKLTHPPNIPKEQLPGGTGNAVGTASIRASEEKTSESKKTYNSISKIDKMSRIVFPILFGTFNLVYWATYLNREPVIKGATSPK
T4 sequence (P63079 26-473, chain 2 of 3): as the sequence (P63079 26-473, chain 2 of 3) above
T4 sequence (P18508 39-466, chain 3 of 3): as the sequence (P18508 39-466, chain 3 of 3) above
Sequence of GABAA receptor β3 subunit alone on COS7 cells (P63079 26-473): as the sequence (P63079 26-473, chain 2 of 3) above
T3 sequence (P28471 36-552, chain 1 of 3): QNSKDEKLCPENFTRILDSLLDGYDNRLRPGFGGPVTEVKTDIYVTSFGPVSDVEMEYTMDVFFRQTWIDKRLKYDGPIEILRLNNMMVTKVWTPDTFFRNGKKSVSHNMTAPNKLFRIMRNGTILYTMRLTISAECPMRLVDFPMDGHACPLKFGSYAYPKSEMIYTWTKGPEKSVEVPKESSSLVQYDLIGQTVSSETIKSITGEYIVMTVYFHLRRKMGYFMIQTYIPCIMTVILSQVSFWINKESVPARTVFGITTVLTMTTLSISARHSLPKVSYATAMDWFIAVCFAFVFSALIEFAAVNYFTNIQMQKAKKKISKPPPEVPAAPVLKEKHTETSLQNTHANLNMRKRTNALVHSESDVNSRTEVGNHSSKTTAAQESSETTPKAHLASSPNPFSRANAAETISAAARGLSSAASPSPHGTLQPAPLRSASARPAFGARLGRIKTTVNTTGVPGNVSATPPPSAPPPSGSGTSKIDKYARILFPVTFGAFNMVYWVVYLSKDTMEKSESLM
T3 sequence (P63079 26-473, chain 2 of 3): as the sequence (P63079 26-473, chain 2 of 3) above
T3 sequence (P18508 39-466, chain 3 of 3): as the sequence (P18508 39-466, chain 3 of 3) above
Sequence of GABAA receptor γ2 subunit alone on COS7 cells (Rattus norvegicus (P18508 39-466): as the sequence (P18508 39-466, chain 3 of 3) above

binding result [1]	binding result [2]	binding result [3]	binding result [4]	binding result [5]	binding result [6]	binding result [7]	binding result [8]	binding result [9]	binding result [10]	binding result [11]	binding result [12]	binding result [13]	binding result [14]	binding result [15]	binding result [16]	Binder
no binding	no binding	no binding	no binding	binds	binds	no binding (tested: 5 μg/ml)	no binding (tested: 5 μg/ml)	binds	binds	–	–	–	–	–	–	human monoclonal GABAAR antibody #113-115 (antibody, V domains shown) VH: QVQLVQSGAEVKKPGASVKVSCKASGYTFISYDINWVRQATGQGLEWMGGMDPKSGNTGYAQKFQGRVTMTTNTAISTAYMELSSLRSEDTAVYYCVRGEQSYDRTGYSDWFDPWGQGTLVTVSS VL: not shown
–	–	–	–	no binding (tested: 5 μg/ml)	binds	no binding (tested: 5 μg/ml)	no binding (tested: 5 μg/ml)	binds	–	no binding (tested: 5 μg/ml)	no binding (tested: 5 μg/ml)	no binding (tested: 5 μg/ml)	no binding (tested: 5 μg/ml)	no binding (tested: 5 μg/ml)	binds	human monoclonal GABAAR antibody #113-175 (antibody, V domains shown) VH: EVQLLESGEGLVQPGGSLRLSCAASGFTFKTYAMSWVRQAPGKGLEWVSAISGSGASTYYADFVEGRFTISRDNSKNTLYLQMNSLRAEDTAVYYCAKEPPAMVWFGGGYFDYWGQGTLVTVSS VL: EIVLTQSPATLSLSPGERATLSCRASQSVSSYLAWYQQKPGQAPRLLIYDASNRATGIPARFSGSGSGTDFTLTISSLEPEDFAVYYCQQRSNWPPYSFGQGTKLEIK
